Values of other authors as cited in publication PMC10385628.

Target: neuropilin-1 (Homo sapiens) (UniProt O14786)
UniProt O14786, sequence (O14786 22-856): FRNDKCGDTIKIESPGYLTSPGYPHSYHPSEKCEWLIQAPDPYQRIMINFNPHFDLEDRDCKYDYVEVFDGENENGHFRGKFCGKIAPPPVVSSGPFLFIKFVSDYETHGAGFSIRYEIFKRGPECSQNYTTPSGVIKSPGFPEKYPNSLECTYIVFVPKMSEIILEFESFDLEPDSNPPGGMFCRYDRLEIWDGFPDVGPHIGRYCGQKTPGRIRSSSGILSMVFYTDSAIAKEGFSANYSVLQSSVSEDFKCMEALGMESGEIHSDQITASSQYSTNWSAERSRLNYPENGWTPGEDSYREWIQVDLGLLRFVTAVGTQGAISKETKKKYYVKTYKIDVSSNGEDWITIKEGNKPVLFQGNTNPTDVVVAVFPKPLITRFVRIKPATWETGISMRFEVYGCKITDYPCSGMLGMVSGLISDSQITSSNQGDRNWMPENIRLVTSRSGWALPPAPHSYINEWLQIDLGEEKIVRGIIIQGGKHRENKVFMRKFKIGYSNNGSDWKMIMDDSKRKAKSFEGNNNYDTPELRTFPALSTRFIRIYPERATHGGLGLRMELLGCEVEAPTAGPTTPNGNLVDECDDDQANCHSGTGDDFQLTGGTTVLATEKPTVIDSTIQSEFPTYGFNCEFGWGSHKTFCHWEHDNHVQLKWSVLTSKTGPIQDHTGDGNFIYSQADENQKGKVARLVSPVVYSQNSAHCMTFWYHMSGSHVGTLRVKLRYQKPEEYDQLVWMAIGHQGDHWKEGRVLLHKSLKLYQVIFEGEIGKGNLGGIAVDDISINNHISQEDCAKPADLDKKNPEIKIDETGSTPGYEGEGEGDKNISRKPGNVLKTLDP

For KDKPPR peptide, the Kd is listed as 500 nM.
